Experimental data published in patent US20190161544A1 (SUNSHINE GUOJIAN PHARMACEUTICAL SHANGHAI, published 2019).

Columns and labels:
[1] = molecular target: T1, hIL-17A (analyte of the Biacore assay) (human, UniProt Q16552 24-155); experiment: SPR, Biacore (as in Example 6): antibody captured, hIL-17A as analyte
T1 construct: The Biacore method says only 'hIL-17A'; also called human IL-17A
Experimental: (§1) The specific experimental method was as follows: Amine Coupling Kit (GE healthcare) was used to activate CM5 sensor chips (GE healthcare) and recombinant Protein A/G (Thermo Pierce) was immobilized on the chip with an amount of 2000 RU. FC3 (Flow cell 3) was a reference channel, and FC4 (Flow cell 4) was a sample channel. […] The cycling conditions were as follows: the analyte was injected at 50 μl/min for 4 min in all channels of the FCs, the dissociation time was 20 min, and 6M guanidine hydrochloride (National Pharmaceutical Group Chemical Reagent Co., Ltd.) was injected at a rate of 10 μl/min for 30 s to surface regeneration. Then, difference between the signals of the captured antibodies and antibody-free controls were adopted to calculate binding kinetics and affinities using Biacore T200 Evaluation Software Ver 1.0.

[2] = molecular target: T1, hIL-17A (analyte of the Biacore assay); experiment: SPR, Biacore T200: antibody captured on Protein A/G, hIL-17A as analyte
Experimental: as §1

[3] = molecular target: T2, recombinant human IL-17A (purchased from R&D Systems) (human, UniProt Q16552 24-155); experiment: cell-based or functional assay
T2 sequence (Q16552 24-155 limits assumed): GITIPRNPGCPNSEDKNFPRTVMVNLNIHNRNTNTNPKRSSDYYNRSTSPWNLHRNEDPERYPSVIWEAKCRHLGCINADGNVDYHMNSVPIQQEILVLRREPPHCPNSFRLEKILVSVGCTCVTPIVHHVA

[4] = molecular target: T2, recombinant human IL-17A (purchased …); experiment: cell-based or functional assay; remark: listed apart in the source

T1 sequence (Q16552 24-155 limits assumed): as above

B1: Ixekizumab (antibody, V domains shown)
VH: QVQLVQSGAEVKKPGSSVKVSCKASGYSFTDYHIHWVRQAPGQGLEWMGVINPMYGTTDYNQRFKGRVTITADESTSTAYMELSSLRSEDTAVYYCARYDYFTGTGVYWGQGTLVTVSS
VL: DIVMTQTPLSLSVTPGQPASISCRSSRSLVHSRGNTYLHWYLQKPGQSPQLLIYKVSNRFIGVPDRFSGSGSGTDFTLKISRVEAEDVGVYYCSQSTHLPFTFGQGTKLEIKR
- Kd [1]: 0.0411 nM
- koff [1]: 9.45e-05 s⁻¹
- kon [1]: 2.3e+06 M⁻¹ s⁻¹
- Kd [2]: 0.0637 nM
- koff [2]: 3.28e-05 s⁻¹
- kon [2]: 515000 M⁻¹ s⁻¹
- IC50(pM), inhibition of IL-17A-induced IL-6 secretion from Hela cells, Experiment 1 [3]: 21.9 pM
- IC50(pM), inhibition of IL-17A-induced IL-6 secretion from Hela cells, Experiment 2 [3]: 27.4 pM
- IC50(pM), inhibition of IL-17A-induced IL-6 secretion from Hela cells, Experiment 3 [3]: 50.7 pM
- IC50, inhibition of IL-17A-induced IL-6 secretion from Hela cells [4]: 0.0606 nM

B2: humanized anti-human IL-17A monoclonal antibody 120-Hu (antibody, human IgG1, kappa, V domains shown)
VH: EVQLVESGGGLVQPGGSLRLSCAASGFTFSSFDMSWGRQAPGKRLEWVAFMSSGGSTYYPDSVKGRFTISRDNSKNTLYLQMNSLRAEDTAVYYCARGERYGSYWGQGTLVTVSS
VL: DIQMTQSPSSLSASVGDRVTITCKASDHINNWLAWYQQKPGKAPKLLISGATSLETGVPSRFSGSGSGTDYTLTISSLQPEDFATYYCQQYWSTPFTFGSGTKLEIKR
notes: Human IgG1; also called 120-Humanization; humanized 120 antibody
- Kd [1]: < 0.001 nM
- koff [1]: < 1e-05 s⁻¹
- kon [1]: 445000 M⁻¹ s⁻¹
- IC50(pM), inhibition of IL-17A-induced IL-6 secretion from Hela cells, Experiment 1 [3]: 14.7 pM
- IC50(pM), inhibition of IL-17A-induced IL-6 secretion from Hela cells, Experiment 2 [3]: 22 pM
- IC50(pM), inhibition of IL-17A-induced IL-6 secretion from Hela cells, Experiment 3 [3]: 44.6 pM

B3: murine anti-human IL-17A monoclonal antibody No.120 (antibody, V domains shown)
VH: EVKLVESGGGLVRPGGTLKLSCAASGFTFSSFDMSWGRQTPEKRLEWVAFMSSGGSTYYPDSVKGRFTISRDNVRNILYLQMISLRSEDTAMYYCARGERYGSYWGQGTLVTVSA
VL: DIQMTQSSSYLSVSLGGRVTITCKASDHINNWLAWYQQKPGNAPRLLISGATSLETGVPSRFSGSGSGKDYTLSITSLQTEDVATYYCQQYWSTPFTFGSGTKLEIK
notes: also called No.120 antibody; murine 120 antibody
- Kd [2]: 0.000299 nM
- koff [2]: 6.08e-08 s⁻¹
- kon [2]: 204000 M⁻¹ s⁻¹
- IC50, inhibition of IL-17A-induced IL-6 secretion from Hela cells [4]: 0.0305 nM
